Reference: article PMC12319226 (Frontiers in Bioinformatics, 2025)

How the values were obtained:
Experiment in all cases: BLI
Conditions in all cases: both partners purified
[1] = molecular target: T1, fHbp m001200 (Neisseria meningitidis fHbp v3.28-based …, point mutant)
T1 chain: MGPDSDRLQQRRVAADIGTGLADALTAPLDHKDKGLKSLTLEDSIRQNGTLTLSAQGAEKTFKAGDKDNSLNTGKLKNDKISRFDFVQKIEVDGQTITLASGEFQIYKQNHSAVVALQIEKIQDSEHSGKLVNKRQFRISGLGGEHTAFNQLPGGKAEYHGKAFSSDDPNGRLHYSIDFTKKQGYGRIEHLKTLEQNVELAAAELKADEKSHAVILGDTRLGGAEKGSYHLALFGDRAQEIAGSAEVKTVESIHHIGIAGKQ

[2] = molecular target: T2, fHbp m002404 (Neisseria meningitidis fHbp v3.28, …, chimera)
T2 chain: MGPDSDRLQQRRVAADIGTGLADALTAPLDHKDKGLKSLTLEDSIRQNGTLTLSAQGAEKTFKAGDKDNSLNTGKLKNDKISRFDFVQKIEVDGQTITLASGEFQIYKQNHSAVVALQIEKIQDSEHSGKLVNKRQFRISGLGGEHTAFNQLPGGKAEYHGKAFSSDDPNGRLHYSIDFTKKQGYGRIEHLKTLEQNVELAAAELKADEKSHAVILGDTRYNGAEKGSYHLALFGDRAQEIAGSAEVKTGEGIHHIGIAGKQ

[3] = molecular target: T3, fHbp m001118 (Neisseria meningitidis fHbp v3.28-based …, point mutant)
T3 chain: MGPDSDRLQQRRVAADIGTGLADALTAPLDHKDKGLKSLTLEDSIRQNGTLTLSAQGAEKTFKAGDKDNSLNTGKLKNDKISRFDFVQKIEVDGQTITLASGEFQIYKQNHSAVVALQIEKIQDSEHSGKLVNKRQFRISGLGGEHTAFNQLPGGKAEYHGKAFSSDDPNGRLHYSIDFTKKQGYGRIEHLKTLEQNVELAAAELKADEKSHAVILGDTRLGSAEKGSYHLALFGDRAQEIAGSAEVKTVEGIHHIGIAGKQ

[4] = molecular target: T4, fHbp m001211 (Neisseria meningitidis fHbp v3.28-based …, point mutant)
T4 chain: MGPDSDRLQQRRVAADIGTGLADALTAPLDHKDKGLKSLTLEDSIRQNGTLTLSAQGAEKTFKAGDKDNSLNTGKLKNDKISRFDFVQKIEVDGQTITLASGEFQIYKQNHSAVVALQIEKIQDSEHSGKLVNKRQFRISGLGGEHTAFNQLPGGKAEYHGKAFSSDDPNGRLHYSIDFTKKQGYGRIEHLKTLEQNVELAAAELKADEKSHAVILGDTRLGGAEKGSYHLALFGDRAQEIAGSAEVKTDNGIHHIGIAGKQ

[5] = molecular target: T5, fHbp m002417 (Neisseria meningitidis fHbp v3.28, …, chimera)
T5 chain: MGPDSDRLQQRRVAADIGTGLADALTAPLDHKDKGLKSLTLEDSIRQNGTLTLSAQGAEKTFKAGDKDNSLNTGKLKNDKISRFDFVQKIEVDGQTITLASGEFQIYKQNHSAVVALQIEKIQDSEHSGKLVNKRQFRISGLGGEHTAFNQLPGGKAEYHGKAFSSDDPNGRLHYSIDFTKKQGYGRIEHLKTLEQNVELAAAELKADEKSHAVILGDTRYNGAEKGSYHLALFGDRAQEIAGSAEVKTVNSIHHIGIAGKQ

[6] = molecular target: T6, fHbp m001207 (Neisseria meningitidis fHbp v3.28-based …, point mutant)
T6 chain: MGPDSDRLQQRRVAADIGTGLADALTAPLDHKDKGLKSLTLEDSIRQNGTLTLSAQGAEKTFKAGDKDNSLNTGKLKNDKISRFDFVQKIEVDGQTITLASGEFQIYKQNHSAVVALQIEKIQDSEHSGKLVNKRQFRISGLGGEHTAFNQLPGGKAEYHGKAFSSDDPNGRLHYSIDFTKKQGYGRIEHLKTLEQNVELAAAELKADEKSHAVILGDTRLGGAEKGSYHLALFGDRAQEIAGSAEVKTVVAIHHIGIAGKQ

[7] = molecular target: T7, fHbp m001660 (Neisseria meningitidis, fHbp …, point mutant)
T7 chain: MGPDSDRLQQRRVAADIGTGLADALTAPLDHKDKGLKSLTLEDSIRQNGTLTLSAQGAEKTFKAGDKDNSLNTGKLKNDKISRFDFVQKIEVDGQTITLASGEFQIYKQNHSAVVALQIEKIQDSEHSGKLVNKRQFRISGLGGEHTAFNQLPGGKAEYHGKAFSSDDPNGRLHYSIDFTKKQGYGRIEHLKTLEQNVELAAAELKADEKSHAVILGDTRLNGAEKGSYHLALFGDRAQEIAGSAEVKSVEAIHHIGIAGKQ

[8] = molecular target: T8, fHbp m001015 (Neisseria meningitidis fHbp v3.28, …, point mutant)
T8 chain: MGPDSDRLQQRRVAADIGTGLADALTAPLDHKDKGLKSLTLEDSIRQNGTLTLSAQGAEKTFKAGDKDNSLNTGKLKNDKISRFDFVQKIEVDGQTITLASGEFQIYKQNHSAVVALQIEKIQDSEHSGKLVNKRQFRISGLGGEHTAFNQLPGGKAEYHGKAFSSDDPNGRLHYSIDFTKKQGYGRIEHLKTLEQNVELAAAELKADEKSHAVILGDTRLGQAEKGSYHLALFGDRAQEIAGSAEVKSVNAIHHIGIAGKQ

Binder | Kd [1] [pM] | koff [1] [s⁻¹] | kon [1] [M⁻¹ s⁻¹] | Kd [2] [pM] | koff [2] [s⁻¹] | kon [2] [M⁻¹ s⁻¹] | Kd [3] [pM] | koff [3] [s⁻¹] | kon [3] [M⁻¹ s⁻¹] | Kd [4] [pM] | koff [4] [s⁻¹] | kon [4] [M⁻¹ s⁻¹] | Kd [5] [pM] | koff [5] [s⁻¹] | kon [5] [M⁻¹ s⁻¹] | Kd [6] [pM] | koff [6] [s⁻¹] | kon [6] [M⁻¹ s⁻¹] | Kd [7] [pM] | koff [7] [s⁻¹] | further results
mAb 1E6 (human) (antibody, V domains shown, source: Expi293, purified (MabSelect SuRe, SEC); copies: 2 + 2) VH: EVQLVQSGAEVKKPGSSVKVSCKASGGTVIDYPITWVRQAPGQGLEWVGGFVPLFRTSNYGQKFQGRVTITADKSTSTASMELNSLTSEDTAIYYCARGDTAMGPFDYWGQGTLVTVSS VL: SYVLTQPPSLSVAPGKTATLTCGGNNIAGKTVHWYQQRPGQAPVLVISYDSDRPSGIPERFSGSNSANTATLTISRVEAGDEADYYCQVWDRNSDHWVFGGGTKLTVL | 219 | 0.000303 | 1.385e+06 ± 5610 | 429 | 0.000144 | 336700 ± 1540 | 235 | 8.5e-05 | 361600 ± 2210 | 507 | 0.000219 | 431400 ± 2210 | 502 | 0.000179 | 356800 ± 1380 | 336 | 0.000155 | 459700 ± 4080 | 706 | 0.000209 | kon [7]: 296000 ± 3450 M⁻¹ s⁻¹; Kd [8]: 1120 pM; koff [8]: 0.000418 s⁻¹; kon [8]: 375100 ± 1120 M⁻¹ s⁻¹
chimeric antibody h12C1 (antibody, V domains shown, also called humanized 12C1; source: Expi293, purified (MabSelect SuRe, SEC); copies: 2 + 2) VH: QVQLQESGPELVKPGASVKISCKASGYSFSDYNMSWVKQSNGKSLEWIGIIDPKYGTINYNQKFKGKATLTVDQASSTAYMQLNSLTSEDSAVYYCVRDYYGSSYFDYWGQGTTLTVSS VL: DIVLTQSPSSIYASLGERVTLTCKASQDIHNYLNWFQQKPGKSPKTLIYRANRLVDGVPSRFSGGGSGQDYSLTISSLEFEDIGIYYCLQYDEFPPTFGGGTRLEIK | 243 | 0.000202 | 830700 ± 4100 | 125000 | 0.01534 ± 0.000107 | 123000 ± 5460 | 42000 | 0.0103 | 245000 ± 3100 | 19800 | 0.00753 | 381300 ± 3730 | 95600 | 0.00962 | 101000 ± 1890 | 80800 | 0.014 | 174000 ± 4810 | 139000 | 0.0649 ± 0.00238 | kon [7]: 466000 ± 71500 M⁻¹ s⁻¹; Kd [8]: 187000 pM; koff [8]: 0.02355 ± 0.000153 s⁻¹; kon [8]: 126000 ± 5980 M⁻¹ s⁻¹
